The values below come from patent publication US6331664A, “Acyl-ACP thioesterase nucleic acids from maize and methods of altering palmitic acid levels in transgenic plants therewith” (Dow AgroSciences LLC, priority 1998, dated 2001).

Read-outs that look alike come from different tables or passages of the source.

One data set deals with maize PTE. Kind of data set: Thioesterase assay, substrate specificity of partially purified maize PTE expressed in E. coli. Particulars: for Percent Relative Activity: 10 μM radio-labeled acyl-ACP, 30° C., 5 min, 100% = 2.1 units/mg protein. Type of data set: biochemical. As to the method: (§1) For enzymatic analysis of E coli expressed maize PTE, substrates were made as follows: ACP (Sigma Chemical Co.) was further purified by three cycles of precipitation at pH 4.0 using 10% (v/v) acetic acid followed by resolubilization in 50 mM Tris-HCl, pH 8.0. Carbon-14 or tritium-labeled fatty acids (lauric, 12:0; myristic, 14:0; palmitic, 16:0; stearic, 18:0; and oleic, 18:1) were obtained from Amersham (Arlington Heights, Ill.) or NEN Research Products. Acyl-ACPs were synthesized and purified according to Rock et al., ((1981) Methods in Enzymology, 72:397-403). Thioesterase assays were conducted according to Ohlrogge et al., ((1978) Arch. Biochem. Biophys. 189:382-391) with slight modifications. A standard reaction contained […] Tris-HCl, pH 8.0, 10 μM radio-labeled acyl-ACP (50-58 μCi/μmol), and enzyme in 50 μL. Reactions were conducted at 30° C. for 5 min and terminated with 200 μL of 10% (v/v) acetic acid. Free fatty acids were extracted twice with 1 mL hexane and the organic phases were combined for liquid scintillation counting. Protein concentrations were determined according to Bradford ((1976) Anal. Biochem. […]:248-254). Linear regressions were used for determination of kinetic constants from double reciprocal plots.

In data set [1] the test system is maize OTE. Kind of data set: Thioesterase assay, substrate specificity and Km of maize OTE purified from kernels. The conditions noted are these: for activity relative to that observed with 18:1-ACP: C14-labeled acyl-ACPs; for Km: double reciprocal plots. The format is biochemical. How it is done: as §1
The resolubilized PEG-precipitated material was applied to hydroxyapatite (HA-Ultrogel, Sigma Chemical Co.) which had been previously loaded into a 2.5×20 cm column equilibrated with buffer A. After loading, the column was washed with 300 mL of buffer A and maize OTE activity was eluted with buffer A having 1 M NaCl. Enzymatic activity was followed using C^14 labeled 18:1-ACP as substrate. Production of substrate and biochemical assays were performed as described herein. Fractions having thioesterase activity were pooled and desalted to 20 mM Tris, pH 7.0, 0.4 mM DTT (buffer B) on PD-10 columns (Pharmacia). The desalted fraction was then applied to a MonoQ HR 10/10 column (Pharmacia) and the enzyme was eluted using a linear gradient of 0-0.5 M NaCl in buffer B over 30 min. at a flow rate of 4 mL/min. Fractions were assayed for activity and active fractions were pooled and desalted on PD-10 columns (Pharmacia) equilibrated with buffer A.
The substrate specificity of purified maize OTE was analyzed using several C^14 -labeled acyl-ACPs as described herein. […] Low activities (less than 10% of that observed with 18:1-ACP) were observed when using 12:0-ACP, 14:0-ACP, 16:0-ACP, 18:0-ACP.

The subject of data set [2] is maize OTE. Kind of data set: Thioesterase assay, substrate specificity of maize OTE expressed in E. coli. Type of data set: biochemical. Particulars: for Percent Relative Activity: radio-labeled acyl-ACP, 100% = 2.1 units/mg protein.
Data set [3] has as its target 12:0-ACP (Laurate).
For data set [4], the target named is 14:0-ACP (Myristate).
The target in data set [5] is 16:0-ACP (Palmitate).
Data set [6] deals with 18:0-ACP (Stearate).
The target of data set [7] is 18:1-ACP (Oleate).
The target in data set [8] is 12:0-ACP (Laurate). The source holds these as a separate data set.
In data set [9] the target is 14:0-ACP (Myristate). The source holds these as a separate data set.
Data set [10] has as its target 16:0-ACP (Palmitate). This is another data set of the same source.
The target in data set [11] is 18:0-ACP (Stearate). This is another data set of the same source.
Data set [12] concerns the target 18:1-ACP (Oleate). This is another data set of the same source.
Data set [13] deals with 12:0-ACP (Laurate). The source holds these as a separate data set.
Data set [14] has as its target 14:0-ACP (Myristate). This is another data set of the same source.
Data set [15] deals with 16:0-ACP (Palmitate). This is another data set of the same source.
Data set [16] concerns the target 18:0-ACP (Stearate). The source holds these as a separate data set.
Data set [17] deals with 18:1-ACP (Oleate). The source holds these as a separate data set.

For “12:0-ACP: radio-labeled lauric acid thioester of acyl carrier protein, thioesterase substrate”, the figures for the “Percent Relative Activity” value with maize PTE and in the data set on maize OTE [2] were 0.0% and 0.7%, respectively. In addition, in the data set on maize OTE [1], the “activity relative to that observed with 18:1-ACP” value is “less than 10%”.
One may read the Km as the substrate concentration at which the rate is half of its maximum. Turning to “16:0-ACP: radio-labeled palmitic acid thioester of acyl carrier protein, thioesterase substrate”, the “Percent Relative Activity” value amounted to 100.0% in the data set with maize PTE and 14.1% in the data set on maize OTE [2]. For the same molecule, the “activity relative to that observed with 18:1-ACP” value in the data set on maize OTE [1] was “less than 10%”. Also, the Km in the data set on maize OTE [1] was found to be 25 µM.
Consider “18:0-ACP: radio-labeled stearic acid thioester of acyl carrier protein, thioesterase substrate”, for which the “Percent Relative Activity” value was determined as 61.2% with maize PTE and 25.2% with maize OTE [2]. Besides, the “activity relative to that observed with 18:1-ACP” value with maize OTE [1] is “less than 10%”.
Regarding “18:1-ACP: radio-labeled oleic acid thioester of acyl carrier protein, thioesterase substrate”, the “Percent Relative Activity” value is listed as 40.4% in the data set on maize PTE and 100.0% with maize OTE [2]. Further, the Km in the data set on maize OTE [1] was 0.75 µM.
“maize oleoyl-ACP thioesterase, mature protein expressed in E. coli (pDAB371) (enzyme)”: the Percent Relative Activity (thioesterase assay, release of radio-labeled free fatty acid) (% relative activity) came to 0.7 with 12:0-ACP (Laurate) [3]; 6.3 with 14:0-ACP (Myristate) [4]; 14.1 with 16:0-ACP (Palmitate) [5]; 25.2 in the data set with 18:0-ACP (Stearate) [6]; 100 with 18:1-ACP (Oleate) [7].
As for “maize oleoyl-ACP thioesterase, native protein from maize kernels and embryos (enzyme)”, the substrate specificity (thioesterase assay with C14-labeled acyl-ACPs) (% of that observed with 18:1-ACP) with 12:0-ACP (Laurate) [8], with 14:0-ACP (Myristate) [9], in the data set with 16:0-ACP (Palmitate) [10] and with 18:0-ACP (Stearate) [11] was less than 10 each time. Moreover, the Km was found to be 25 µM with 16:0-ACP (Palmitate) [10] and 0.75 µM in the data set with 18:1-ACP (Oleate) [12].
Consider “maize palmitoyl-ACP thioesterase, mature protein expressed in E. coli (pDAB378) (enzyme)”, for which the Percent Relative Activity (thioesterase assay, release of radio-labeled free fatty acid) (% relative activity) with 12:0-ACP (Laurate) [13] was 0; with 14:0-ACP (Myristate) [14], 16; with 16:0-ACP (Palmitate) [15] it was 100; in the data set with 18:0-ACP (Stearate) [16] it was 61.2; with 18:1-ACP (Oleate) [17], 40.4.

B1: maize PTE: maize palmitoyl-ACP thioesterase, mature protein expressed in E. coli from pDAB378 (protein)
chain: LPDWSMLLAAITTIFLAAEKQWTMLDWKPRRPDMLTDTFGFGRIIHDGLMFRQNFSIRSYEIGADRTASIETLMNHLQETALNHVKTAGLLGDGFGSTPEMSKRNLFWVVSQMQAIIERYPCWGDTVEVDTWVSANGKNGMRRDWHIRDPITGLTILKATSKWVMMNKLTRKLARIPDEVRTEIEPYFFEHSAIVDEDNRKLPKLPEGQSTSVAKYVRTGLTPRWADLDINQHVNNVKYIAWILESAPISILENHELASIVLDYKRECGRDSVLQSHTSVHTDCNSESGETTLHCEHVLSLESGPTMVKARTMWRPKGTKAQETVVPSSI
For B1, the “specific activity equivalent to 100% relative activity” value in the data set with maize PTE (unit = cleavage of 1 μmol/h free fatty acid at 30° C., 16:0-ACP) is 2.1 units/mg protein.

B2: maize OTE: maize oleoyl-ACP thioesterase, purified from kernels or expressed in E. coli from pDAB371 (protein)
chain: CARGAPQVSGIEAASPGHAAVTAALAKAEGGDARPSLAERLRLGNLLEDGLSYKESFIVRCYEVGINKTATVETIANLLQEVGCNHAQSVGFSTDGFATTTTMRKLGLIWVTNRMHIEIYKYPAWGDVVEIETWCQEDGRIGTRRDWILKDLANGEVIGRATSKWVMMNQNTRRLQRVSDDVRDEVFMHCPKAPRLAFPEENNGSLKKIPNLSDPAEYSRLGLVPRRADLDMNQHVNNVTYIGWVLESIPQDIIDTHELQTITLDYRRECQQDDIVDSLTCIEEGEEKSMNGSASAAAPHKEERQQFLHCLRFAANGHEINRGRTVWRKLAR
Regarding B2, the “specific activity equivalent to 100% relative activity” value in the data set on maize OTE [2] (unit = cleavage of 1 μmol/h free fatty acid at 30° C., 18:1-ACP) is recorded as 2.1 units/mg protein.
